Reference: patent publication US20180141989A1 (BOARD OF REGENTS OF THE UNIVERSITY OF OKLAHOMA, published 2018)
Where no end group is shown, it is not given here.

Experiments:
[1] = target: MBP-RAMP2 ECD [L106R]-(GS)5-CLR ECD-H6 fusion protein (human) (UniProt O60895); assay: FP (anisotropy) competition: displaces FITC-Ahx-AM(37-52)NH2[S45W,Q50W] probe (7 nM) from MBP-RAMP2 ECD[L106R]-(GS)5-CLR ECD-H6 (110 nM) [G-H) panel G]
[2] = target: MBP-RAMP2 ECD [L106R]-(GS)5-CLR ECD-H6 fusion protein (human) (UniProt O60895); assay: FP competition vs FITC-AM W/W probe, purified ECD fusion
[3] = target: T1, MBP-RAMP1 ECD-(GS)5-CLR ECD-H6 fusion protein (human, UniProt O60894 24-111; Q16602 29-144); assay: FP (anisotropy) competition: displaces FITC-Ahx-AM(37-52)NH2[S45W,Q50W] probe (7 nM) from MBP-RAMP1 ECD-(GS)5-CLR ECD-H6 (15 nM) [I-J) lower graph]
T1 construct: range 24-111;range 29-144; Tethered ECD fusion made in E. coli; used in the FP assay at 15 nM; also called MBP-hRAMP1.24-111-(Gly-Ser)5-hCLR.29-144-H6
Protocol: (§1) Fluorescence polarization peptide binding assay. […] The reactions (50 μL) were incubated for 2 hours at room temperature to reach equilibrium, and the anisotropy was measured in black half-area 96-well plates using a BMG LABTECH's POLARstar® Omega plate reader (Ortenberg, Germany). The reaction buffer was 50 mM HEPES, pH 7.5, 150 mM NaCl, 0.5 mg/ml fatty acid-free BSA, 0.5 mM EDTA, 0.5 mM maltose. KI values were calculated using nonlinear regression fitting of the competition curves to the exact analytical equations of Roehrl et al. (Biochemistry (2004) 43:16056-66) using GraphPad Prism 5.0 (GraphPad Software, San Diego Calif.).

[4] = target: MBP-RAMP2 ECD [L106R]-(GS)5-CLR ECD-H6 fusion protein (human) (UniProt O60895); assay: FP (anisotropy) competition: displaces FITC-Ahx-AM(37-52)NH2[S45W,Q50W] probe (7 nM) from MBP-RAMP2 ECD[L106R]-(GS)5-CLR ECD-H6 (110 nM) [I-K) panel K]
[5] = target: T1, MBP-RAMP1 ECD-(GS)5-CLR ECD-H6 fusion …; assay: FP (anisotropy) competition: displaces FITC-Ahx-AM(37-52)NH2[S45W,Q50W] probe (7 nM) from MBP-RAMP1 ECD-(GS)5-CLR ECD-H6 (15 nM) [A-C) panel B]
Protocol: as §1

[6] = target: MBP-RAMP2 ECD [L106R]-(GS)5-CLR ECD-H6 fusion protein (human) (UniProt O60895); assay: AlphaLISA competition: displaces Biotin-AM probe (25 nM) from the RAMP2-CLR ECD fusion protein (5 nM)
[7] = target: T1, MBP-RAMP1 ECD-(GS)5-CLR ECD-H6 fusion …; assay: FP competition vs FITC-AM W/W probe, purified ECD fusion
Protocol: as §1
(§2) The large size difference between the MBP-RAMP ECD-CLR ECD fusion proteins (˜65 kDa) and the probe (˜2.5 kDa) ensures a significant anisotropy difference between bound and free states of the probe. […] Kd values for the probe at each of the tethered ECD fusion proteins were determined in equilibrium saturation binding experiments (data not shown), and KI values were determined for unlabeled peptides in equilibrium competition experiments (Table 1; FIGS. 2-5). The data were analyzed according to exact analytical equations using non-linear regression curve fitting in GraphPad Prism 5.0 (GraphPad Software) via user-defined equations.

[8] = target: T1, MBP-RAMP1 ECD-(GS)5-CLR ECD-H6 fusion …; assay: AlphaLISA competition: displaces Biotin-CGRP probe (50 nM) from the RAMP1-CLR ECD fusion protein (5 nM)
Protocol: (§3) The probes were as described in Moad and Pioszak (Protein Sci. (2013) 22:1775-85). The reactions were incubated for 5 hours at room temperature to reach equilibrium, and the luminescence was measured in white 384-well plates using a BMG LABTECH's POLARstar® Omega plate reader (Ortenberg, Germany). The reaction buffer was 50 mM MOPS, pH 7.4, 150 mM NaCl, 7 mg/ml fatty acid-free BSA, and the streptavidin-coated donor beads and MBP-antibody coated acceptor beads were at 15 μg/ml each. IC₅₀ values were calculated using nonlinear regression fitting of the competition curves to a three-parameter, one-site competitive binding equation in GraphPad Prism 5.0 (GraphPad Software, San Diego Calif.).

[9] = target: MBP-RAMP2 ECD [L106R]-(GS)5-CLR ECD-H6 fusion protein (human) (UniProt O60895); assay: FP (anisotropy) competition: displaces FITC-Ahx-AM(37-52)NH2[S45W,Q50W] probe (7 nM) from MBP-RAMP2 ECD[L106R]-(GS)5-CLR ECD-H6 (110 nM) [A-C) panel A]
[10] = target: T1, MBP-RAMP1 ECD-(GS)5-CLR ECD-H6 fusion …; assay: ratio of FP KI values at the two ECD complexes
Protocol: as §1, §2

[11] = target: T1, MBP-RAMP1 ECD-(GS)5-CLR ECD-H6 fusion …; assay: FP (anisotropy) competition: displaces FITC-Ahx-AM(37-52)NH2[S45W,Q50W] probe (7 nM) from MBP-RAMP1 ECD-(GS)5-CLR ECD-H6 (15 nM) [F-H) panel F]
Protocol: as §1

[12] = target: MBP-RAMP2 ECD [L106R]-(GS)5-CLR ECD-H6 fusion protein (human) (UniProt O60895); assay: FP (anisotropy) competition: displaces FITC-Ahx-AM(37-52)NH2[S45W,Q50W] probe (7 nM) from MBP-RAMP2 ECD[L106R]-(GS)5-CLR ECD-H6 (110 nM) [A-C) panel B]
[13] = target: MBP-RAMP2 ECD [L106R]-(GS)5-CLR ECD-H6 fusion protein (human) (UniProt O60895); assay: ratio of FP KI values at the two ECD complexes
[14] = target: MBP-RAMP2 ECD [L106R]-(GS)5-CLR ECD-H6 fusion protein (human) (UniProt O60895); assay: AlphaLISA competition vs Biotin-AM probe
[15] = target: T1, MBP-RAMP1 ECD-(GS)5-CLR ECD-H6 fusion …; assay: FP (anisotropy) competition: displaces FITC-Ahx-AM(37-52)NH2[S45W,Q50W] probe (7 nM) from MBP-RAMP1 ECD-(GS)5-CLR ECD-H6 (15 nM) [F-H) panel G]
Protocol: as §1

[16] = target: MBP-RAMP2 ECD [L106R]-(GS)5-CLR ECD-H6 fusion protein (human) (UniProt O60895); assay: AlphaLISA or AlphaScreen competition assays
[17] = target: T1, MBP-RAMP1 ECD-(GS)5-CLR ECD-H6 fusion …; assay: FP (anisotropy) competition: displaces FITC-Ahx-AM(37-52)NH2[S45W,Q50W] probe (7 nM) from MBP-RAMP1 ECD-(GS)5-CLR ECD-H6 (15 nM) [A-C) panel C]
Protocol: as §1
as §1, with “Single representative experiments conducted with duplicate samples are shown.” for “Fluorescence polarization peptide binding assay.”, “reactions” for “reactions (50 μL)”

[18] = target: T2, MBP-RAMP1 ECD-(GS)5-CTR ECD-H6 fusion protein (human, UniProt O60894 27-118; P30988 34-141, limits assumed); assay: AlphaLISA competition vs Biotin-AC413 probe, purified AMY1 ECD fusion
T2 construct: extracellular domain; CTR-based proteins were produced in HEK293T cells (N-glycosylated); also called RAMP1-CTR ECD; RAMP1-CTR
Protocol: as §3, with “A single representative experiment conducted with duplicate samples is shown. […]” for “The probes were as described in Moad and Pioszak (Protein Sci. (2013) 22:1775-85).”, “BSA” for “BSA,”

[19] = target: T1, MBP-RAMP1 ECD-(GS)5-CLR ECD-H6 fusion …; assay: FP (anisotropy) competition: displaces FITC-Ahx-AM(37-52)NH2[S45W,Q50W] probe (7 nM) from MBP-RAMP1 ECD-(GS)5-CLR ECD-H6 (15 nM) [D-E) panel E]
Protocol: as §1
as §1, with “Single representative experiments conducted with duplicate samples are shown.” for “Fluorescence polarization peptide binding assay.”, “reactions” for “reactions (50 μL)”

[20] = target: T1, MBP-RAMP1 ECD-(GS)5-CLR ECD-H6 fusion …; assay: FP (anisotropy) competition: displaces FITC-Ahx-AM(37-52)NH2[S45W,Q50W] probe (7 nM) from MBP-RAMP1 ECD-(GS)5-CLR ECD-H6 (15 nM) [D-E) panel D]
Protocol: as §1
as §1, with “Single representative experiments conducted with duplicate samples are shown.” for “Fluorescence polarization peptide binding assay.”, “reactions” for “reactions (50 μL)”

T1 sequence (O60894 other isoform, or with tags, fused parts or gaps limits assumed, form in doubt): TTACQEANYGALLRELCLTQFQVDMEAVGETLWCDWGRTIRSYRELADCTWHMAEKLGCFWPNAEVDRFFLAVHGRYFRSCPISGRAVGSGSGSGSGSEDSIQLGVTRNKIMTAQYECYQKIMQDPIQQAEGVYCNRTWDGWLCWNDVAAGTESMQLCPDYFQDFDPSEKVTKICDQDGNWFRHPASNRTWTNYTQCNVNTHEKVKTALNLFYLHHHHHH
Chain of MBP-RAMP2 ECD [L106R]-(GS)5-CLR ECD-H6 fusion protein (human) (O60895 other isoform, or with tags, fused parts or gaps L106R L106R): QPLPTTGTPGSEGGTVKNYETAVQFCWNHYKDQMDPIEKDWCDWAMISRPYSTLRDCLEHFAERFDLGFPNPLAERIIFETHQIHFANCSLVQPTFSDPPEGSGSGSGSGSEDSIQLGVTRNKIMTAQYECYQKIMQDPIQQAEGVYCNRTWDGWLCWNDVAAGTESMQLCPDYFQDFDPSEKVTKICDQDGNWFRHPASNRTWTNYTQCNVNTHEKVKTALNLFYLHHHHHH
T2 sequence (O60894 other isoform, or with tags, fused parts or gaps limits assumed): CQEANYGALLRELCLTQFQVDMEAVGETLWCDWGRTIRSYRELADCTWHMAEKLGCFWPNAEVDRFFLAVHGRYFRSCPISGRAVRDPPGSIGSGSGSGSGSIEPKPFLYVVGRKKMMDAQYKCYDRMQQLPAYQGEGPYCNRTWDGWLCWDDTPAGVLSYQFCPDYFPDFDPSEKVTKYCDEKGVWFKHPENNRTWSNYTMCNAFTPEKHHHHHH

Binder | Ki [2] | pKI [2] | Ki [7] | pKI [7] | other results
DKDNVAPRWLIGPWGF-NH2 [AM(37-52)NH2 [S45W, K46L, S48G, Q50W, Y52F]] | 1250 nM | 5.9 | – | – | IC50 (read off the curve) [1]: 200 nM
DKWNVAPRSKISPWGY-NH2 (also called AM(37-52)NH2 [D39W, Q50W]) [AM(37-52) D39W/Q50W] | – | – | – | – | IC50 (read off the curve) [3]: ~400 nM; IC50 (read off the curve) [4]: 300 nM
DKDNVAPRWKISPWGY-NH2 (also called S45W/Q50W double mutant) [AM(37-52)NH2 [S45W, Q50W]] | 81.3 nM | 7.09 | 44.7 nM | 7.35 | IC50 (read off the curve) [5]: ~100 nM; IC50 [6]: 20 nM; IC50 [8]: 17 nM; IC50 (read off the curve) [9]: 200 nM
DKDNVAPRTLISPWGY-NH2 [AM(37-52)NH2[S45T, K46L, Q50W]] | 1570 nM | 5.8 | 65.6 nM | 7.18 | Receptor Selectivity (fold, over RAMP2-CLR ECD) [10]: 24 fold; IC50 (read off the curve) [11]: ~200 nM
DKDNVAPRSKISPFGY-NH2 [AM(37-52)NH2 [Q50F]] | 2140 nM | 5.67 | 10500 nM | 4.98 | IC50 (read off the curve) [12]: 4 µM; Receptor Selectivity (fold, over RAMP1-CLR ECD) [13]: 5 fold
DKDNVAPRSKISPWGY-NH2 [AM(37-52)NH2 [Q50W]] | 316 nM | 6.5 | 501 nM | 6.3 | IC50 (read off the curve) [5]: ~1000 nM; IC50 (read off the curve) [12]: 0.6 µM; IC50 [6]: 44 nM; fold increase in affinity (over AM(37-52)NH2, implied) [14]: 100 fold; IC50 [8]: 400 nM
DKDNVAPRWLMSPWGF-NH2 [AM(37-52)NH2 [S45W, K46L, I47M, Q50W, Y52F]] | – | – | 0.78 nM | 9.11 | IC50 (read off the curve) [15]: ~10 nM
DKDNVAPRSKISPQGY-NH2 [AM(37-52)NH2] | 20400 nM | 4.69 | – | – | IC50 [16]: 5 to 15 µM; IC50 [6]: 5000 nM
FVPTDVGPWSF-NH2 [CGRP(27-37)NH2 [N31D, S34P, K35W, A36S]] | 2450 nM | 5.61 | 1.32 nM | 8.88 | Receptor Selectivity (fold, over RAMP2-CLR ECD) [10]: 1860 fold; IC50 (read off the curve) [17]: ~10 nM; IC50 [18]: 260 nM
FVPTDTGPWSF-NH2 [CGRP(27-37)NH2 [N31D, V32T, S34P, K35W, A36S]] | 2750 nM | 5.56 | < 1 nM | > 9 | Receptor Selectivity (fold, over RAMP2-CLR ECD) [10]: ≥ 2750 fold; IC50 (read off the curve) [19]: ~10 nM
FVPTDTGPWGF-NH2 [CGRP(27-37)NH2 [N31D, V32T, S34P, K35W, A36G]] | – | – | 6.85 nM | 8.16 | IC50 (read off the curve) [20]: ~30 nM
